Results on two molecules are retold here after US20130101549A1 (Biogen, published 2013).

In experiment [1] the target is human LTβR on tumor cells (human, UniProt P36941 31-435). Briefly: cell-based or functional assay.
Experiment [2] deals with T1, human HER2-Fc (human, UniProt P04626 23-652).
T1 construct: Bought from R&D Systems: homodimeric fusion of the HER2 extracellular domain and human IgG1 Fc; also called human ErbB2-Fc; rhErbB2-Fc; not shown: Fc fragment of human IgG1
Briefly: ELISA on coated HER2-Fc. As for the experimental part: (§1) Human and murine ErbB2-Fc were obtained from R&D Systems. Wells of 96-well plates were coated with 2 ug/ml or 0.2 ug/ml of human or murine HER2-Fc by incubation overnight at 4-8° C. with either of these six proteins (80 ul/well of a 0.2 or 2 ug/ml solution in PBS). Wells were emptied, filled completely with a solution of PBS with 1% BSA (blocking buffer) and incubated at room temperature for 1 hour. Wells were emptied, washed twice PBS containing 0.05% Tween 20 (PBST) and filled with the samples (80 ul/well of 3× dilution series of the standard and supernatants in blocking buffer) prepared in another 96-well plate. After a 2-hour incubation at room temperature, the wells were emptied, washed three times with PBST and filled with a solution of HRP-conjugated goat pAbs anti-human kappa chain (80 ul/well of a 2000-fold dilution in blocking buffer). After 1-hour incubation, the wells were emptied and filled with a solution of HRP substrate prepared freshly. The color was left to develop for 3 minutes and was stopped by addition of an equal volume of 1N H₂SO₄. Absorbance was measured at 450 nm using a Plate Reader (SpectraMax, Molecular Devices). The data was processed and graphs were created using SoftMax Pro software.

In experiment [3] the target is T2, human HVEM-Ig (human, UniProt Q92956 39-202).
T2 construct: Expressed and purified in house; also called HVEM-Fc; Herpes virus entry mediator-Ig
T2 sequence (looked up): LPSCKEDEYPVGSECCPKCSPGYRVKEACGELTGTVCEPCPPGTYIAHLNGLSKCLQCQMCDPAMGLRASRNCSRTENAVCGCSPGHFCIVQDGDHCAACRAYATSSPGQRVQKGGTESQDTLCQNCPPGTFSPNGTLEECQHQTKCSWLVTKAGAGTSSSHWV
In words: FACS (HVEM column of Table 2; format not told there).

The target of experiment [4] is T1, human HER2-Fc. In words: Octet biolayer interferometry, receptor-Fc on anti-human Fc biosensor, culture supernatant. As for the experimental part: (§2) Anti-human Fc-specific biosensors (Fortebio SKU 18-0001) were hydrated in OB (1×PBS supplemented with 1 mg/ml BSA, 0.05% NaN₃, and 0.02% TWEEN 20) for at least five minutes prior to assays. For each assay, the respective receptor—Fc fusion was diluted to 10 μg/ml in OB and allowed to bind to the biosensors for five minutes. The sensors were then incubated in the indicated culture supernatant for an additional five minutes, and subsequently transferred to fresh wells […].

The target in experiment [5] is T2, human HVEM-Ig. Described as above. How it is done: as §2
The target of experiment [6] is T3, human LTβR-Ig (human, UniProt P36941 31-227).
T3 construct: Expressed and purified in house; also called hLTbR-Ig; human LTBR-Ig
T3 sequence (P36941 31-227): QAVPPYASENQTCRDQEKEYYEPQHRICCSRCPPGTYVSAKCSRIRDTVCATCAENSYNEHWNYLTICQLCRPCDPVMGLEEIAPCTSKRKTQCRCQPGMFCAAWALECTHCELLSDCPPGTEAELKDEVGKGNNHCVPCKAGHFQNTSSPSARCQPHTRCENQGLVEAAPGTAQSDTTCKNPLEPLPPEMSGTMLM
The experiment is described as above. As for the experimental part: as §2

Experiment [7] has as its target T4, murine HER2-Fc (mouse; human, UniProt P70424 23-653).
T4 construct: extracellular domain; Bought from R&D Systems; also called murine ErbB2-Fc; not shown: Fc fragment of human IgG1
In words: ELISA on coated muHER2-Fc, HRP anti-human kappa; the number is C of the printed 4-P fit (A 0.005, B 1.068, D 0.84, R^2 0.999); x axis: Fab equivalent concentration.

Experiment [8] concerns the target T3, human LTβR-Ig. In words: FACS (LTbR column of Table 2; format not told there).
The target in experiment [9] is T3, human LTβR-Ig. Briefly: ELISA on coated LTbR-Ig. As for the experimental part:
as §1
Human and murine LTBR-Ig were expressed and purified in house.

Experiment [10] deals with T1, human HER2-Fc. In words: ELISA on coated huHER2-Fc, HRP anti-human kappa; the number is C of the printed 4-P fit (A -0.059, B 0.832, D 1.098, R^2 0.998); x axis: Fab equivalent concentration.
Experiment [11] addresses T2, human HVEM-Ig. Briefly: ELISA on coated HVEM-Ig. As for the experimental part: as §1
Human and murine HVEM-Ig were expressed and purified in house.

Experiment [12] addresses T5, human HER2/ErbB2 on cells (human, UniProt P04626 23-1255).
T5 construct: whole, on cells; also called hHER2/ErbB2; wild type HER2/ErbB
Briefly: FACS on HER2-expressing cells.

The target in experiment [13] is T4, murine HER2-Fc. In words: ELISA on coated muHER2-Fc, HRP anti-human kappa; the number is C of the printed 4-P fit (A 0.008, B 1.027, D 0.896, R^2 1); x axis: Fab equivalent concentration. How it is done: as §1, with “Wells” for “Human and murine ErbB2-Fc were obtained from R&D Systems. Wells”, “coated” for “coated with 2 ug/ml or 0.2 ug/ml of human or murine HER2-Fc”, “goat antibodies against human kappa chain” for “either of these six proteins”, “5” for “0.2 or 2”
Human and murine HER2-Fc (homodimeric fusion proteins consisting of the extracellular domain of HER2 and the Fc fragment of human IgG1) were obtained from R&D Systems. […]

Experiment [14] concerns the target T1, human HER2-Fc. In words: ELISA on coated huHER2-Fc, HRP anti-human kappa; the number is C of the printed 4-P fit (A 0.006, B 1.142, D 0.89, R^2 1); x axis: Fab equivalent concentration.
The next experiment deals with T6, human LTBR-mIgG fusion.
T6 construct: kept apart from m25 (human Fc); not shown: exact end of the LTBR part
T6 sequence (chain, as listed by the source limits assumed): as the sequence (P36941 31-227) above
Briefly: sandwich ELISA after incubation at 200 ng/ml in human serum (cold or 37°C overnight): HER2-Fc on the plate, human LTBR-mIgG, HRP anti-mouse IgG; the signal needs both bindings at once. As for the experimental part:
An ELISA assay was developed to detect LIGHT-Ab fusions after incubation with human sera. Briefly, 200 ng/mL of LIGHT-Ab fusions were incubated overnight in human serum at 37° C. The serum was assayed in sandwich ELISA as follows. HER2-Fc was immobilized to a solid surface, and was used to capture the LIGHT-Ab fusions. The serum incubated fusion proteins were added to the solid surface. Detection was effected using a human LTBR-mIgG fusion to bind to the LIGHT moiety of the fusion. Horseradish peroxidase (HRP) labeled anti-mouse IgG was used to detect bound LIGHT-Ab fusions.

Chain of human LTβR on tumor cells (P36941 31-435): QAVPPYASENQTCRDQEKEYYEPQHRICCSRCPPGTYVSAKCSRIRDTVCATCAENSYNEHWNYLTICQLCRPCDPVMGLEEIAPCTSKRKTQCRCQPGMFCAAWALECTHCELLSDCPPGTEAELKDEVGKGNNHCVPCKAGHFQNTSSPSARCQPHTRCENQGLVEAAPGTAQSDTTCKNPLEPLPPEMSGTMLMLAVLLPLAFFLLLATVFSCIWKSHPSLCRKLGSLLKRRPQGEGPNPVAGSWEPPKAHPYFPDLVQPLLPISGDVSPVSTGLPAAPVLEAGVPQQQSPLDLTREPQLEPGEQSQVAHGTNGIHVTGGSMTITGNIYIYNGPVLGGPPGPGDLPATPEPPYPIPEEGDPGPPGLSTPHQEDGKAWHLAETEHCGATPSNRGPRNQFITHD
T4 sequence (P70424 23-653): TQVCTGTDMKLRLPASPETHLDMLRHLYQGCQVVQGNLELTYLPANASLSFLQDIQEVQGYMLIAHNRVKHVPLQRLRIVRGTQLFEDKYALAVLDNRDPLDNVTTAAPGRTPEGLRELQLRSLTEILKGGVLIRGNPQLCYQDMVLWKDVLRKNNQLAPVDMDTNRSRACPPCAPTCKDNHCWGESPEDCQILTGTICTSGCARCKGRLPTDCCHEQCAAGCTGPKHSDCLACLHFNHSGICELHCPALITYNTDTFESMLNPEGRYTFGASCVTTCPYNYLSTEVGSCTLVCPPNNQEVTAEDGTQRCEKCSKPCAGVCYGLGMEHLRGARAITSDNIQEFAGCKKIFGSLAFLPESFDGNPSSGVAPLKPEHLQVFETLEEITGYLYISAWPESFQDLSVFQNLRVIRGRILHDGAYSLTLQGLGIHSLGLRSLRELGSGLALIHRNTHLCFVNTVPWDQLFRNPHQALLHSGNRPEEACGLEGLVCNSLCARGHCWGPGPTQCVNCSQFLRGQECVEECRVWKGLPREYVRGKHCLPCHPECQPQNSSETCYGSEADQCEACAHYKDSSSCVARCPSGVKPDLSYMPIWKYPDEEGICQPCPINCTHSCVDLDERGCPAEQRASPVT

B1: 71F10 Fab-hLIGHT fusion with the delta 4 linker (BIIB71F10-130) (other)
heavy: EVQLLESGGGLVQPGGSLRLSCAASGFTFSSYGMVWVRQAPGKGLEWVSSISSSGGLTWYADSVKGRFTISRDNSKNTLYLQMNSLRAEDTAVYYCASPPGIAVARDYWGQGTLVTVSSASTKGPSVFPLAPSSKSTSGGTAALGCLVKDYFPEPVTVSWNSGALTSGVHTFPAVLQSSGLYSLSSVVTVPSSSLGTQTYICNVNHKPSNTKVDKKVEPKSCDKLHWRLGEMVTRLPDGPAGSWQERRSHEVNPAAHLTGANSSLTGSGGPLLWETQLGLAFLRGLSYHDGALVVTKAGYYYIYSKVQLGGVGCPLGLASTITHGLYKRTPRYPEELELLVSQQSPCGRATSSSRVWWDSSFLGGVVHLEAGEEVVVRVLDERLVRLRDGTRSYFGAFMV
light: DIQMTQSPSSLSASVGDRVTITCRASQGISNYLAWYQQKPGKVPKLLIYAASTLQSGVPSRFSGSGSGTDFTLTISSLQPEDVATYYCQKYNSALLTFGGGTKVEIKRTVAAPSVFIFPPSDEQLKSGTASVVCLLNNFYPREAKVQWKVDNALQSGNSQESVTEQDSKDSTYSLSSTLTLSKADYEKHKVYACEVTHQGLSSPVTKSFNRGEC
notes: Fab heavy chain - linker - human LIGHT extracellular part; assembles as a trimer of Fab-LIGHT units; also called pBIIB71F10-130; LIGHT fusion #130
For the molecule B1, in [1], the “fold difference of gene expression, treated/untreated HT29 cells (qRT-PCR): CCL2 (MCP-1)” value worked out at 1050 fold; the “fold difference of gene expression, treated/untreated HT29 cells (qRT-PCR): CCL5 (RANTES)” value was 1220 fold; the “fold difference of gene expression, treated/untreated HT29 cells (qRT-PCR): CCL7 (MCP-3)” value is -527 fold; the “fold difference of gene expression, treated/untreated HT29 cells (qRT-PCR): CCL21” value worked out at 546 fold. Moreover, in experiment [1], the “fold difference of gene expression, treated/untreated HT29 cells (qRT-PCR): CCR4” value was 1650 fold; the “fold difference of gene expression, treated/untreated HT29 cells (qRT-PCR): CXCL2” value was found to be 1130 fold; the “fold difference of gene expression, treated/untreated HT29 cells (qRT-PCR): CXCL3” value amounted to 1090 fold; the “fold difference of gene expression, treated/untreated HT29 cells (qRT-PCR): CXCL5 (ENA-78/LIX)” value was 1810 fold. Further, in experiment [1], the “fold difference of gene expression, treated/untreated HT29 cells (qRT-PCR): CXCL9” value amounted to 675 fold; the “fold difference of gene expression, treated/untreated HT29 cells (qRT-PCR): CXCL10 (IP-10)” value came to 5270 fold; the “fold difference of gene expression, treated/untreated HT29 cells (qRT-PCR): CXCL11 (I-TAC/IP9)” value worked out at 1730 fold; the “fold difference of gene expression, treated/untreated HT29 cells (qRT-PCR): IFNA2” value was found to be 193 fold. Moreover, in [1], the “fold difference of gene expression, treated/untreated HT29 cells (qRT-PCR): IL5” value amounted to 940 fold; the “fold difference of gene expression, treated/untreated HT29 cells (qRT-PCR): IL8” value is 373 fold; the “fold difference of gene expression, treated/untreated HT29 cells (qRT-PCR): IL10RA” value was found to be 3440 fold; the “fold difference of gene expression, treated/untreated HT29 cells (qRT-PCR): LTB” value is 2910 fold. The “fold difference of gene expression, treated/untreated HT29 cells (qRT-PCR): TNF” value in experiment [1] amounted to 7370 fold. The same molecule gave an EC50 in the experiment with human HER2-Fc [2] of 0.05 nM. In the experiment with human HVEM-Ig [3], this molecule had an EC50 of 0.5 nM. In the experiment with human HER2-Fc [4], this molecule showed a koff of 0.000112 s⁻¹. In the experiment with human HVEM-Ig [5], this molecule showed a koff of 0.000122 s⁻¹. Also, in the experiment with human LTβR-Ig [6], the koff was 0.000168 s⁻¹. Moreover, the EC50 in the experiment with murine HER2-Fc [7] was 0.0114 µg/mL. In the experiment with human LTβR-Ig [8], this molecule registered an EC50 of 0.2 nM. Also, in the experiment with human LTβR-Ig [9], it took 0.01 nM to reach a half-maximal effect (EC50). Also, in the experiment with human HER2-Fc [10], the EC50 is 0.00955 µg/mL. Further, the midpoint of the response in the experiment with human HVEM-Ig [11], the EC50, lay at 0.01 nM. The EC50 in experiment [12] turned out to be 0.5 nM.

B2: 71F10 Fab-hLIGHT fusion with the G4S delta 4 linker (BIIB71F10-131) (other)
heavy: EVQLLESGGGLVQPGGSLRLSCAASGFTFSSYGMVWVRQAPGKGLEWVSSISSSGGLTWYADSVKGRFTISRDNSKNTLYLQMNSLRAEDTAVYYCASPPGIAVARDYWGQGTLVTVSSASTKGPSVFPLAPSSKSTSGGTAALGCLVKDYFPEPVTVSWNSGALTSGVHTFPAVLQSSGLYSLSSVVTVPSSSLGTQTYICNVNHKPSNTKVDKKVEPKSCDKGGGGSLHWRLGEMVTRLPDGPAGSWQERRSHEVNPAAHLTGANSSLTGSGGPLLWETQLGLAFLRGLSYHDGALVVTKAGYYYIYSKVQLGGVGCPLGLASTITHGLYKRTPRYPEELELLVSQQSPCGRATSSSRVWWDSSFLGGVVHLEAGEEVVVRVLDERLVRLRDGTRSYFGAFMV
light: DIQMTQSPSSLSASVGDRVTITCRASQGISNYLAWYQQKPGKVPKLLIYAASTLQSGVPSRFSGSGSGTDFTLTISSLQPEDVATYYCQKYNSALLTFGGGTKVEIKRTVAAPSVFIFPPSDEQLKSGTASVVCLLNNFYPREAKVQWKVDNALQSGNSQESVTEQDSKDSTYSLSSTLTLSKADYEKHKVYACEVTHQGLSSPVTKSFNRGEC
notes: Trimer of Fab-LIGHT units; also called pBIIB71F10-131
Consider B2, for which the EC50 worked out at 0.05 nM in the experiment with human HER2-Fc [2]; 0.5 nM with human HVEM-Ig [3]; 0.0139 µg/mL in the experiment with murine HER2-Fc [13]; 0.2 nM in the experiment with human LTβR-Ig [8]; 0.01 nM with human LTβR-Ig [9]; 0.01 nM in the experiment with human HVEM-Ig [11]. For the same molecule, the EC50 in experiment [12] was determined as 0.5 nM; in the experiment with human HER2-Fc [14] it was 0.00608 µg/mL. The koff was 0.000307 s⁻¹ with human HER2-Fc [4] and 0.000183 s⁻¹ with human LTβR-Ig [6]. Also, the binding result in the experiment with human LTBR-mIgG fusion is “binds”.
